Experiment [1] addresses Leucine-rich repeat containing, G protein-coupled receptor 5 (LGR5), human, on HEK293T cells (HEK293-LGR5-DeltaC) (human) (UniProt O75473). Put plainly: whole-cell binding assay.
Experiment [2] addresses Leucine-rich repeat containing, G protein-coupled receptor 4 (LGR4), human, on HEK293T cells (human, UniProt Q9BXB1 25-951). Put plainly: whole-cell binding assay.

Sequence of Leucine-rich repeat containing, G protein-coupled receptor 5 (LGR5), human, on HEK293T cells (HEK293-LGR5-DeltaC) (human) (O75473 22-907, stated change not applied): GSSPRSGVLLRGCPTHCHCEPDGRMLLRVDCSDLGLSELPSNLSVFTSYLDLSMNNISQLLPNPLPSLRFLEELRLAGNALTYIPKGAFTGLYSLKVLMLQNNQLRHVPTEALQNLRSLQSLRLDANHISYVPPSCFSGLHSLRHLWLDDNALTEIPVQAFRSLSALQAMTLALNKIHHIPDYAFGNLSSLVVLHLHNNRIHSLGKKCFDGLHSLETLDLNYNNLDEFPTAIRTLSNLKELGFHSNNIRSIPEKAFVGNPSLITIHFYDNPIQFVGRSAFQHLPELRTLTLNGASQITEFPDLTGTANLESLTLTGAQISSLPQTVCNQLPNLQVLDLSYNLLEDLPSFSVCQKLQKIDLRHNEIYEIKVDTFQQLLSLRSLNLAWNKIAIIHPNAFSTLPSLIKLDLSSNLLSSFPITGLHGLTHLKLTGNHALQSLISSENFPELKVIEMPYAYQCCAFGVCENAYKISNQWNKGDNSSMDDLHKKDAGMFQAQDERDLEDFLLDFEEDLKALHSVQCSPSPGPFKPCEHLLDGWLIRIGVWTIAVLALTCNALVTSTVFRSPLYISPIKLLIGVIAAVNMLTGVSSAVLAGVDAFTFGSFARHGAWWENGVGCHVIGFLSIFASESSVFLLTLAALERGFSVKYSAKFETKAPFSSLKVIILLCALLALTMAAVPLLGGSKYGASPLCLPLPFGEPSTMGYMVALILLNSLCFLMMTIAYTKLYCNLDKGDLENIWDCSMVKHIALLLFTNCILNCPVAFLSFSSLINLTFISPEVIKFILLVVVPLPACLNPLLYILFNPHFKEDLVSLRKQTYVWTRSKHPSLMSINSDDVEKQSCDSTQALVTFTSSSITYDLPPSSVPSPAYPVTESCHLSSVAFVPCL

B1: R232, RSPO2 furin domain M68T/Q70R double mutant fused to human IgG1-Fc (Fc fusion)
chain: CKGCLSCSKDNGCSRCQQKLFFFLRREGTRRYGECLHSCPSGYYGHRAPDMNRCARCRIENCDSCFSKDFCTKCKVGFYLHRGRCFDECPDGFAPLEETMEC
Usually Kd stands for the equilibrium constant for the complex coming apart. A high value points to a looser complex. As to B1, the Kd was determined as 0.3 nM in experiment [1] and 0.2 nM in experiment [2].

(Values after paper doi:10.1101/2025.04.25.650662 (bioRxiv, 2025).)
